Reference: US20250011368A1, “DLL3 TARGETING PEPTIDES AND CONSTRUCTS THEREOF” (MARIANA ONCOLOGY INC., priority 2023, published 2025)
Blank lines part the entries; values can stand above or below the binder they belong to. Numbered stars: 1 amine (or outer) side, 2 acyl side, 3 side chain; on linkers, the order of the positions; unused ones are H or OH. Bridge positions count the residues as written; N and C are the ends. Square brackets hold non-standard residues; d marks the D form. * marks the point of attachment. Ala(piperidin-4-yl) = O=C([C@H](CC1CCN([*:3])CC1)N[*:1])[*:2]; DOTA = O=C(O)CN1CCN(CC(=O)O)CCN(CC(=O)*)CCN(CC(=O)O)CC1; Trp(5-F) = N[C@@H](Cc1c[nH]c2ccc(F)cc12)C(=O)O; Trp(7-aza) = N[C@@H](Cc1c[nH]c2ncccc12)C(=O)O; Pro(trans-4-F) = O=C(O)[C@@H]1C[C@@H](F)CN1; 2Nal = N[C@@H](Cc1ccc2ccccc2c1)C(=O)O; 4Pal = N[C@@H](Cc1ccncc1)C(=O)O; Cha = N[C@@H](CC1CCCCC1)C(=O)O

Experiments:
[1] = target: T1, Biotinylated human DLL3 (Delta Like Canonical Notch Ligand 3) (human, UniProt Q9NYJ7 27-492, limits assumed, biotinylated (site not stated)); experiment: SPR; letter grade, key in paragraph 614
T1 construct: also called Delta-like protein 3; biotinylated target ligand human DLL3
T1 sequence: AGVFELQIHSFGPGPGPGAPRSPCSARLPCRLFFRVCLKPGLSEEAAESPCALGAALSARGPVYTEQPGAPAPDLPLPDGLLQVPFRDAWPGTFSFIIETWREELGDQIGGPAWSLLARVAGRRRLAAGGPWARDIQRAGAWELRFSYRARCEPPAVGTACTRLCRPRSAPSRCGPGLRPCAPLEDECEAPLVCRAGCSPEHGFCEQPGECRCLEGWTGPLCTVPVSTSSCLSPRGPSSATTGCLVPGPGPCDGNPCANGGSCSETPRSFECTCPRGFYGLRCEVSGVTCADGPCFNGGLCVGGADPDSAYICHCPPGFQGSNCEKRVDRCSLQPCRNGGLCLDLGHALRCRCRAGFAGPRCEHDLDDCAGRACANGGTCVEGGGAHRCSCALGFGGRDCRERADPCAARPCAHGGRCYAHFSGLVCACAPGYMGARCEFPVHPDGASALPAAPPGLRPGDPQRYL
Method: (§1) Biotinylated target ligand human DLL3 was immobilized on a streptavidin sensor chip. A reference surface was set up for nonspecific binding and refractive index changes. For analysis of the kinetics of interactions, varying concentrations of samples were injected at a flow rate of 100 μL/minute using running buffer containing 20 mM phosphate buffer with 2.7 mM KCl, 137 mM NaCl, 0.05% Surfactant P20 and 2% DMSO. Sensorgram curves were fitted with 1:1 binding model, and affinity and kinetic parameters were obtained using Biacore Insight evaluation 4.0. software.

[2] = target: Biotinylated human DLL3 (Delta Like Canonical Notch Ligand 3) (human) (UniProt Q9NYJ7); experiment: SPR; letter grade, key in paragraph 614
DLL3 on SHP-77 cells = target: T2, DLL3 on SHP-77 cells (human, UniProt Q9NYJ7 27-618); experiment: 177Lu-peptide bound to SHP-77 cells, gamma counting; letter grade, key in paragraph 629
T2 construct: SHP-77 cells are human-derived, non-engineered SCLC cells
T2 sequence: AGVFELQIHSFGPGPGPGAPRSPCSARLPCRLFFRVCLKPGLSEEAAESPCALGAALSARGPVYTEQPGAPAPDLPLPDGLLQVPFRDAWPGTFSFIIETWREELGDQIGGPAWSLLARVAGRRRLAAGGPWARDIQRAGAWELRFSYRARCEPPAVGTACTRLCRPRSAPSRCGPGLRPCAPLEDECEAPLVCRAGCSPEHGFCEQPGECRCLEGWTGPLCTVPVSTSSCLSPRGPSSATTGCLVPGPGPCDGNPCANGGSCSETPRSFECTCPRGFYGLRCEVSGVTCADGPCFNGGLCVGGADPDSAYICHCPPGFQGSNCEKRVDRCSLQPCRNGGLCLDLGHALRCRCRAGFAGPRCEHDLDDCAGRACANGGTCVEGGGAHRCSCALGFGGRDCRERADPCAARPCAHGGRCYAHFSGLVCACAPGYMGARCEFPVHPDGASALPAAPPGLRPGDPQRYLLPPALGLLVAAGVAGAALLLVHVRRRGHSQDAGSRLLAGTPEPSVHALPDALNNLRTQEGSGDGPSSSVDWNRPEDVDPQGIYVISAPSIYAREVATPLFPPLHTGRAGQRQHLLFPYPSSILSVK
Method: The study was conducted using SHP-77, CT26.WT, and CT26.DLL3 cells (Table 7) Adherent cell studies: The cells were cultured in appropriate culture media (20 mL) in tissue culture treated T150 flasks at 37° C. and 5% CO2. Adherent cells were detached (60-70% confluent) using 5 mL Versene at 37° C. for 3 minutes. After confirming the viability using countess and count of detached cells using Trypan blue, the cells were centrifuged at 4° C. for 5 minutes (1,000 rpm). The cell pellet obtained was washed once with PBS and resuspended in 1% PBSA to obtain the desired cell concentration (5-25 million cells/mL).
Total uptake: Cells were incubated with 300 μL (0.8 μCi) of the incubation buffer (containing radiolabeled peptide [¹⁷⁷Lu] Lu-test peptide) for 1 hour at 37° C. (Table 8). Post incubation, the cells were pelleted and washed 2 times using cold PBS+1% BSA. The supernatant and washes were combined and counted together as “unbound fraction” in a gamma counter. The cells were then resuspended in 300 μL of 1% PBS+1% BSA and counted in the gamma counter as “bound fraction”.

[3] = target: DLL3 on CT26.DLL3 cells (Homo sapiens (Human)) (UniProt Q9NYJ7); experiment: 177Lu-peptide bound to CT26.DLL3 cells, gamma counting; letter grade, key in paragraph 629
[4] = target: T1, Biotinylated human DLL3 (Delta Like …); experiment: SPR; letter grade, key in paragraph 614; lower limit of grade B
Method: as §1

[5] = target: T1, Biotinylated human DLL3 (Delta Like …); experiment: SPR; letter grade, key in paragraph 614; upper limit of grade B
Method: as §1

Kd [1]: ≤ 1 nM
Binder: Ac-WTICNN[2Nal][4Pal]DCWP[dK](DOTA)-NH2 (disulfide 4-10; also: natLu in the DOTA chelator, * = [natLu]Lu-labelled peptide) [[natLu]Lu-labelled Cpd No. 367]

Kd [2]: < 1 nM
Binder: Ac-[Trp(5-F)]T[Cha]CNN[2Nal]HDC[Trp(7-aza)][Pro(trans-4-F)][dK](DOTA)-NH2 (disulfide 4-10) [Cpd No. 245]

% Binding (DLL3 on SHP-77 cells): < 25%
% Binding [3]: < 25%
Binder: Ac-WTIC[Ala(piperidin-4-yl)]N[2Nal]KDCWP[dK](DOTA)-NH2 (disulfide 4-10; not fully specified (residue 8); also: 177Lu chelated in DOTA) [[177Lu]Lu-labelled Cpd No. 326]

% Binding [3]: < 25%
Binder: Ac-[Trp(5-F)]T[Cha]CNN[2Nal]HDC[Trp(7-aza)][Pro(trans-4-F)][dK](DOTA)-NH2 (disulfide 4-10; also: 177Lu complexed in the DOTA chelator) [[177Lu]Lu-labelled Cpd No. 245]

Kd [1]: ≤ 1 nM
B1: Cpd No. 451 (peptide)
peptide: Ac-WTICKN[2Nal]HDCWP[dK](DOTA)-NH2
modifications: disulfide 4-10
SMILES: CC[C@H](C)[C@H](NC(=O)[C@@H](NC(=O)[C@H](Cc1c[nH]c2ccccc12)NC(C)=O)[C@@H](C)O)C(=O)N[C@H]1CSSC[C@@H](C(=O)N[C@@H](Cc2c[nH]c3ccccc23)C(=O)N2CCC[C@H]2C(=O)N[C@H](CCCCNC(=O)CN2CCN(CC(=O)O)CCN(CC(=O)O)CCN(CC(=O)O)CC2)C(N)=O)NC(=O)[C@H](CC(=O)O)NC(=O)[C@H](Cc2c[nH]cn2)NC(=O)[C@H](Cc2ccc3ccccc3c2)NC(=O)[C@H](CC(N)=O)NC(=O)[C@H](CCCCN)NC1=O

Kd [1]: ≤ 1 nM
B2: Cpd No. 252 (peptide)
peptide: Ac-WTICNN[2Nal]HDCWP[dK]-NH2
modifications: disulfide 4-10; not fully specified (residue 13); printed as Ac-W-T-I-C(3)-N-N-(2Nal)-H-D-C(3)-W-P-{D-Lys[PEG8-D-Lys(DOTA)-PEG12-COCH2Ph-4Br]}-NH2, disulfide C(3)-C(3)

Kd [4]: > 1 nM
Kd [5]: ≤ 10 nM
Binder: Ac-WTICNNWHDCWP[dK](DOTA)-NH2 (disulfide 4-10) [Cpd No. 23]

Kd [1]: ≤ 1 nM
B3: Cpd No. 367 (peptide)
peptide: Ac-WTICNN[2Nal][4Pal]DCWP[dK](DOTA)-NH2
modifications: disulfide 4-10
SMILES: CC[C@H](C)[C@H](NC(=O)[C@@H](NC(=O)[C@H](Cc1c[nH]c2ccccc12)NC(C)=O)[C@@H](C)O)C(=O)N[C@H]1CSSC[C@@H](C(=O)N[C@@H](Cc2c[nH]c3ccccc23)C(=O)N2CCC[C@H]2C(=O)N[C@H](CCCCNC(=O)CN2CCN(CC(=O)O)CCN(CC(=O)O)CCN(CC(=O)O)CC2)C(N)=O)NC(=O)[C@H](CC(=O)O)NC(=O)[C@H](Cc2ccncc2)NC(=O)[C@H](Cc2ccc3ccccc3c2)NC(=O)[C@H](CC(N)=O)NC(=O)[C@H](CC(N)=O)NC1=O
